For experiment [1], the target named is 重组产生的C末端截短的RSV(A2毒株)F蛋白 (RSV(A2毒株)) (UniProt P03420).
The target is the same in experiment [2]. In words: SPR (BIAcore 3000); truncated F protein on CM5 chip at low density; off-rate at the instrument's detection limit, so an estimate.

This passage reports fold higher affinity than palivizumab, fold higher association rate (kon) than palivizumab and fold lower dissociation rate (koff) than palivizumab results from patent CN101273061A.

Chain of UniProt P03420 (P03420 26-524): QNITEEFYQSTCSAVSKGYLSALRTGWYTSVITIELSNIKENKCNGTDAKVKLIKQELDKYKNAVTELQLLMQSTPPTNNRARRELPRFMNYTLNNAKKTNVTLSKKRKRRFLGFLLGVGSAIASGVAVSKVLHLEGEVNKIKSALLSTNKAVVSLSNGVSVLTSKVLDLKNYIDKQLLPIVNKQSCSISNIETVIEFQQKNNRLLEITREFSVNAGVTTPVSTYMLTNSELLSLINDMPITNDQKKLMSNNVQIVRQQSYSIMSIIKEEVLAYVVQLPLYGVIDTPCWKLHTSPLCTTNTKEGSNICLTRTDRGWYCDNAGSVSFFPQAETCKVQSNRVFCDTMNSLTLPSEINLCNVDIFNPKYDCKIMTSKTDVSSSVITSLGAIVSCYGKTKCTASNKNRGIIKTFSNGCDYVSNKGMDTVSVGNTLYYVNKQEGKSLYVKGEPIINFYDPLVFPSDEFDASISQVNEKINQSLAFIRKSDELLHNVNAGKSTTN

In the case of A4B4L1FR-S28R(莫维珠单抗) (antibody), in experiment [1], the fold higher affinity than palivizumab is 70 fold and the fold higher association rate (kon) than palivizumab is 4 fold. In experiment [2], the fold lower dissociation rate (koff) than palivizumab was 17 fold.
